We go through one substance from paper PMC11456856.

For this assay, the target named is human FcRider (afucosylated two-unit tandem hIgG1 Fc joined by the trimerization sequence Foldon). Put plainly: native gel or EMSA; blue native PAGE, 1.5 h at 150 V in NativePAGE running buffer; hFcRider purified by Protein A column; monomer ~65 kDa in reducing SDS-PAGE.

A word on the stoichiometry N: it is a count of units in the complex or per binding partner. Substance “human FcRider (afucosylated two-unit tandem hIgG1 Fc joined by the trimerization sequence Foldon)” gave a stoichiometry N of 6.
